B1: GalU (UDP-glucose pyrophosphorylase) from Escherichia coli (enzyme, Escherichia coli K-12, UniProt P0AEP3 1-302, looked up)
chain: MAAINTKVKKAVIPVAGLGTRMLPATKAIPKEMLPLVDKPLIQYVVNECIAAGITEIVLVTHSSKNSIENHFDTSFELEAMLEKRVKRQLLDEVQSICPPHVTIMQVRQGLAKGLGHAVLCAHPVVGDEPVAVILPDVILDEYESDLSQDNLAEMIRRFDETGHSQIMVEPVADVTAYGVVDCKGVELAPGESVPMVGVVEKPKADVAPSNLAIVGRYVLSADIWPLLAKTPPGAGDEIQLTDAIDMLIEKETVEAYHMKGKSHDCGNKLGYMQAFVEYGIRHNTLGTEFKAWLEEEMGIKK
notes: GalU, E. coli K-12, gene galU (909 bp) amplified from genomic DNA, codes for 302 amino acids; expressed from pET28c as an untagged protein; also called UDP-Glc PPase; UTP:glucose-1-phosphate uridylyltransferase; source: E. coli BL21 Star (DE3), purified (DEAE-Sepharose)
B2: GalU_(T20M/R21H) (enzyme, Escherichia coli K-12, UniProt P0AEP3 1-302, looked up)
chain: B1 chain with T20M, R21H
notes: GalU, E. coli K-12, 302 amino acids, untagged, with T20M and R21H; Mutagenesis on the plasmid of the wild-type enzyme; also called GalU T20M/R21H double mutant; source: E. coli BL21 Star (DE3), purified (DEAE-Sepharose)
B3: GalU_(K202A) (enzyme, Escherichia coli K-12, UniProt P0AEP3 1-302, looked up)
chain: B1 chain with K202A
notes: GalU, E. coli K-12, 302 amino acids, untagged, with K202A; Mutagenesis on the plasmid of the wild-type enzyme; source: E. coli BL21 Star (DE3), purified (DEAE-Sepharose)

Positions count from the first letter of the chain named. Names may count otherwise.

The series concerns the molecule itself. Briefly: SEC; gel filtration of the purified protein on Superdex 200 HR 10/30 in 25 mM Tris-HCl pH 8.0, 100 mM NaCl, 0.1 mM EDTA; mass from a calibration plot of standards. (In general: In gel filtration, larger molecules generally elute earlier.)
With B1, the “stoichiometry N” value was determined as 4.

With B2, the “stoichiometry N” value stood at 4.

Consider B3, for which the “stoichiometry N” value worked out at 4.

As usually defined, the stoichiometry N is the number of molecules, sites or subunits per partner or assembly.

The values above are taken from PMC4643126, “On the Ancestral UDP-Glucose Pyrophosphorylase Activity of GalF from Escherichia coli” (Frontiers in Microbiology, 2015).
